Laboratory results from publication PMC4942575, “Plastid-nucleus communication involves calcium-modulated MAPK signalling” (Nature Communications, 2016).

Assays:
GST-MPK3 = biological target: T1, GST-MPK3 (Arabidopsis, UniProt Q39023 1-370); assay: pull-down; GST or GST-MPK3/MPK6 immobilised on glutathione beads, 4 μg His-tagged ABI4, 4 °C for 4 h; washed with 50 mM Tris-HCl pH 7.4, 100 mM NaCl, 1 mM EDTA, 0.5% Nonidet P-40; anti-His immunoblot; settings: both partners purified
T1 construct: MPK3, Arabidopsis, full length, in PGEX5X-1; also called GST-tagged MPK3
T1 sequence (looked up): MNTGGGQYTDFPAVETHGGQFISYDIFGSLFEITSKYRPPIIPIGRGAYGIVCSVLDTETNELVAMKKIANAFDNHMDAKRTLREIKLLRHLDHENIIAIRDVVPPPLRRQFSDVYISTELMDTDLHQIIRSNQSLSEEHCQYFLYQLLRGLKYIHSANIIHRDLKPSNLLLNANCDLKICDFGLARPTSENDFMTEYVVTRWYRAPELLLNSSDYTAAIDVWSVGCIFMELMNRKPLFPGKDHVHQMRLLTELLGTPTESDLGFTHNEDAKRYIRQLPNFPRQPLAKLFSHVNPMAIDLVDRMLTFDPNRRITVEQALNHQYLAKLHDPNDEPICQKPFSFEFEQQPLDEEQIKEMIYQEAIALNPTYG

GST-MPK6 = biological target: T2, GST-MPK6 (Arabidopsis, UniProt Q39026 1-395); assay: as above; settings: both partners purified
T2 construct: MPK6, Arabidopsis, full length, in PGEX5X-1; also called GST-tagged MPK6
T2 sequence (Q39026 whole entry): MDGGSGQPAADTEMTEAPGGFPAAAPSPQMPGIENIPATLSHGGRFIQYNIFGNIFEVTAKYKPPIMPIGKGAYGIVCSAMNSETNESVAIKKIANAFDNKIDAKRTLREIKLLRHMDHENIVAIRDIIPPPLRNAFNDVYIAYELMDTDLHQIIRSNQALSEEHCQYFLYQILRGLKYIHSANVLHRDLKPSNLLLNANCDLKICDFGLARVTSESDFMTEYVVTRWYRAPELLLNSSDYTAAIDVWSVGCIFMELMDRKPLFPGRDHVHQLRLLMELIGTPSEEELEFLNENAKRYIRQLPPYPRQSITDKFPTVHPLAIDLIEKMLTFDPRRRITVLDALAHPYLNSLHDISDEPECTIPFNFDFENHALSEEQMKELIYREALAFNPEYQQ

B1: His-tagged ABI4 (natural protein)
chain: not shown
notes: ABI4, Arabidopsis; the ABI4 cDNA was inserted into the pCold vector; The pull-down methods name only 'recombinant His-tagged ABI4 protein'; also called recombinant ABI4
GST-MPK3
  binding result: binds
GST-MPK6
  binding result: binds
